The values below come from US20250154262A1.

The target in this experiment is hFcγRIIIa-V158 (human) (UniProt P08637). In words: SPR (Carterra LSA), protein AG capture.
Chain of hFcγRIIIa-V158 (human) (P08637 17-208 F176V limits assumed): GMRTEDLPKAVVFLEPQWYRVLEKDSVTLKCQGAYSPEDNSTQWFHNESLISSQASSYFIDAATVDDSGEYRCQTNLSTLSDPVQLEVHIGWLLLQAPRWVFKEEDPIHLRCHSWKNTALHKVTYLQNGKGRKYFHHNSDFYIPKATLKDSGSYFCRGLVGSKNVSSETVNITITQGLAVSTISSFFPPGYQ
Regarding A330Y_D376V_Y373W (antibody), the Fold-change relative to WT was found to be 2.4 fold; the Kd (in general, the concentration at which binding is half-saturated) was found to be 123 nM; the koff – broadly, the first-order rate constant of dissociation – worked out at 0.0786 s⁻¹; the association rate constant (kon) (commonly the rate constant with which the complex forms) came to 637000 M⁻¹ s⁻¹.

Substance A330Y_S267A_D376V_S298A (antibody) registered an equilibrium dissociation constant (Kd) of 67.9 nM.

H268D_A330Y_A339T_Y373W (antibody) returned a Fold-change relative to WT of 4.4 fold, a Kd of 66.3 nM, a koff of 0.019 s⁻¹ and an on-rate (kon) of 287000 M⁻¹ s⁻¹.

H268D_A330Y_L251W (antibody): the Fold-change relative to WT came to 2 fold, the dissociation constant (Kd) is 149 nM, the koff came out at 0.026 s⁻¹ and the kon stood at 174000 M⁻¹ s⁻¹.

With H268D_A330Y_L251W_D376V (antibody), the Fold-change relative to WT turned out to be 4.4 fold, the Kd was found to be 66.2 nM, the dissociation rate constant (koff) came out at 0.038 s⁻¹ and the association rate constant (kon) was 574000 M⁻¹ s⁻¹.

Consider H268D_A330Y_L314K (antibody), for which the Fold-change relative to WT worked out at 5.9 fold, the equilibrium dissociation constant (Kd) turned out to be 49.1 nM, the off-rate (koff) came out at 0.0189 s⁻¹ and the on-rate (kon) is 385000 M⁻¹ s⁻¹.

In turn, H268D_A330Y_Y373W (antibody) displayed a Fold-change relative to WT of 4.1 fold, a Kd of 71.7 nM, a koff of 0.025 s⁻¹ and an association rate constant (kon) of 349000 M⁻¹ s⁻¹.

As for H268D_A339T_S298A (antibody), the Fold-change relative to WT is 6.4 fold, the dissociation constant (Kd) amounted to 45.4 nM, the koff is 0.0126 s⁻¹ and the kon came out at 278000 M⁻¹ s⁻¹.

H268D_L251F (antibody) gave a Fold-change relative to WT of 3.9 fold, a Kd of 73.9 nM, a dissociation rate constant (koff) of 0.0243 s⁻¹ and a kon of 328000 M⁻¹ s⁻¹.

The substance H268D_L251F_L314G (antibody) displayed a Fold-change relative to WT of 4.4 fold, an equilibrium dissociation constant (Kd) of 65.8 nM, a koff of 0.0253 s⁻¹ and a kon of 385000 M⁻¹ s⁻¹.

As to H268D_L251F_L314K (antibody), the Fold-change relative to WT was determined as 4.4 fold, the Kd is 65.6 nM, the koff turned out to be 0.024 s⁻¹ and the kon turned out to be 366000 M⁻¹ s⁻¹.

H268D_L251F_L314M (antibody): the Fold-change relative to WT was 3.3 fold, the Kd was determined as 88.3 nM, the koff was 0.025 s⁻¹ and the kon amounted to 283000 M⁻¹ s⁻¹.

As for H268D_L251F_L314M_S298A (antibody), the Fold-change relative to WT was found to be 7.9 fold, the Kd turned out to be 36.7 nM, the off-rate (koff) worked out at 0.0125 s⁻¹ and the kon is 340000 M⁻¹ s⁻¹.

H268D_L251F_L314M_Y373W (antibody): the Fold-change relative to WT was 3.7 fold, the Kd amounted to 79.5 nM, the off-rate (koff) stood at 0.023 s⁻¹ and the kon was determined as 289000 M⁻¹ s⁻¹.

In the case of H268D_L251F_L314N (antibody), the Fold-change relative to WT was 3.9 fold, the Kd was 74.9 nM, the off-rate (koff) was found to be 0.0231 s⁻¹ and the kon amounted to 309000 M⁻¹ s⁻¹.

As for H268D_L251F_L314S (antibody), the Fold-change relative to WT was 4 fold, the Kd is 73 nM, the off-rate (koff) is 0.027 s⁻¹ and the kon came to 370000 M⁻¹ s⁻¹.

For the substance H268D_L251F_L314T (antibody), the Kd turned out to be 68.2 nM.

H268D_L251F_L314V (antibody) had a Fold-change relative to WT of 3.4 fold, a Kd of 84.4 nM, a dissociation rate constant (koff) of 0.0225 s⁻¹ and a kon of 267000 M⁻¹ s⁻¹.

The substance H268D_L251F_L314W (antibody) displayed a Fold-change relative to WT of 1.8 fold, a dissociation constant Kd of 163 nM, a koff of 0.0241 s⁻¹ and an on-rate (kon) of 148000 M⁻¹ s⁻¹.

On to H268D_L251F_Y373W (antibody), for which the Fold-change relative to WT came out at 3.3 fold, the Kd stood at 88.2 nM, the koff worked out at 0.0228 s⁻¹ and the kon was 258000 M⁻¹ s⁻¹.

For H268D_L251I_A330F_S298A (antibody), the Kd was determined as 32.1 nM.

H268D_L251Q (antibody) displayed a Fold-change relative to WT of 2.7 fold, a dissociation constant (Kd) of 107 nM, a koff of 0.047 s⁻¹ and a kon of 438000 M⁻¹ s⁻¹.

H268D_L251Q_L314E (antibody) returned a Fold-change relative to WT of 21.9 fold, a Kd of 13.3 nM, a dissociation rate constant (koff) of 0.0152 s⁻¹ and a kon of 1.15e+06 M⁻¹ s⁻¹.

For the substance H268D_L251Q_L314G (antibody), the Fold-change relative to WT stood at 6.3 fold, the Kd worked out at 45.9 nM, the koff amounted to 0.0246 s⁻¹ and the association rate constant (kon) amounted to 536000 M⁻¹ s⁻¹.

Take H268D_L251Q_L314M (antibody): the Fold-change relative to WT was 3.1 fold, the Kd came to 93.9 nM, the koff was found to be 0.03 s⁻¹ and the on-rate constant (kon) stood at 319000 M⁻¹ s⁻¹.

In turn, H268D_L251Q_L314M_Y373W (antibody) registered a Kd of 72.8 nM.

H268D_L251Q_Y373W (antibody) came in with a Fold-change relative to WT of 4.1 fold, a Kd of 70.2 nM, an off-rate constant (koff) of 0.0292 s⁻¹ and an on-rate constant (kon) of 416000 M⁻¹ s⁻¹.

In turn, H268D_L251Q_Y373W_S298A (antibody) yielded a Kd of 25.2 nM.

Substance H268D_L251W (antibody) displayed a Fold-change relative to WT of 4 fold, a Kd of 72.8 nM, a koff of 0.0682 s⁻¹ and a kon of 936000 M⁻¹ s⁻¹.

As for H268D_L251W_A330Y_Y373W (antibody), the Fold-change relative to WT stood at 3.9 fold, the Kd turned out to be 74.6 nM, the koff worked out at 0.044 s⁻¹ and the kon came out at 590000 M⁻¹ s⁻¹.

H268D_L251W_L314K (antibody) showed a Fold-change relative to WT of 3.3 fold, a Kd of 87.8 nM, a koff of 0.0476 s⁻¹ and a kon of 542000 M⁻¹ s⁻¹.

Take H268D_L251W_L314M (antibody): the Fold-change relative to WT was determined as 1.5 fold, the equilibrium dissociation constant (Kd) is 188 nM, the koff amounted to 0.0564 s⁻¹ and the kon stood at 300000 M⁻¹ s⁻¹.

H268D_L251W_L314M_S298A (antibody): the Fold-change relative to WT came out at 4.2 fold, the Kd came out at 69.1 nM, the koff amounted to 0.0269 s⁻¹ and the kon is 389000 M⁻¹ s⁻¹.

On to H268D_L251W_L314M_Y373W (antibody), for which the Fold-change relative to WT is 1.9 fold, the dissociation constant (Kd) amounted to 151 nM, the off-rate constant (koff) is 0.065 s⁻¹ and the kon stood at 431000 M⁻¹ s⁻¹.

H268D_L251W_L314N (antibody) showed a Fold-change relative to WT of 8.4 fold, a dissociation constant (Kd) of 34.5 nM, a koff of 0.0223 s⁻¹ and a kon of 647000 M⁻¹ s⁻¹.

In the case of H268D_L251W_L314S (antibody), the Fold-change relative to WT stood at 9.4 fold, the Kd worked out at 31.1 nM, the koff was found to be 0.119 s⁻¹ and the kon came to 3.83e+06 M⁻¹ s⁻¹.

The substance H268D_L251W_L314T_S298A (antibody) yielded a Kd of 51.7 nM.

Turning to H268D_L251W_L314V (antibody), the Fold-change relative to WT was found to be 3.1 fold, the dissociation constant Kd was 92.8 nM, the off-rate (koff) came to 0.0231 s⁻¹ and the kon is 249000 M⁻¹ s⁻¹.

The substance H268D_L251W_S267D_Y373W (antibody) had a Fold-change relative to WT of 2.4 fold, an equilibrium dissociation constant (Kd) of 123 nM, an off-rate (koff) of 0.049 s⁻¹ and a kon of 397000 M⁻¹ s⁻¹.

Take H268D_L251W_S298A (antibody): the Fold-change relative to WT was 6.3 fold, the Kd stood at 46 nM, the koff amounted to 0.0213 s⁻¹ and the association rate constant (kon) stood at 463000 M⁻¹ s⁻¹.

The substance H268D_L251W_Y373W (antibody) yielded a dissociation constant (Kd) of 86.8 nM.

With H268D_L251W_Y373W_S298A (antibody), the Fold-change relative to WT came to 3.3 fold, the Kd was found to be 89.1 nM, the koff was 0.034 s⁻¹ and the kon was 381000 M⁻¹ s⁻¹.

H268D_L314K_L251Q (antibody) gave a Kd of 133 nM.

In turn, H268D_L314W_Y373W_A330M (antibody) displayed a Fold-change relative to WT of 7.6 fold, a Kd of 38.4 nM, an off-rate (koff) of 0.0198 s⁻¹ and an association rate constant (kon) of 516000 M⁻¹ s⁻¹.

H268D_S267D_L251I_A339T (antibody) registered a Fold-change relative to WT of 4.8 fold, a Kd of 60.7 nM, a koff of 0.0212 s⁻¹ and a kon of 348000 M⁻¹ s⁻¹.

Regarding H268E_L251Q_A339T_L314A (antibody), the Kd was determined as 118 nM.

As to H268E_L251W_L314I_A330F (antibody), the Fold-change relative to WT turned out to be 2.6 fold, the dissociation constant Kd was determined as 111 nM, the koff came out at 0.0308 s⁻¹ and the kon amounted to 276000 M⁻¹ s⁻¹.

Turning to H268E_L314V_L251A_A330M (antibody), the Fold-change relative to WT came out at 5.1 fold, the Kd worked out at 57.6 nM, the dissociation rate constant (koff) came to 0.021 s⁻¹ and the kon came out at 365000 M⁻¹ s⁻¹.

As for L251F (antibody), the Kd is 104 nM.

L251F_A339T_L314S_Y373W (antibody): the Kd was 204 nM.

L251F_S267A_L314S (antibody) returned a Fold-change relative to WT of 1.7 fold, a Kd of 174 nM, a koff of 0.038 s⁻¹ and a kon of 218000 M⁻¹ s⁻¹.

In the case of L251I_L314G_A339T_A330F (antibody), the Fold-change relative to WT came to 0.2 fold, the dissociation constant Kd was 1610 nM, the koff was determined as 0.062 s⁻¹ and the kon came to 38500 M⁻¹ s⁻¹.

In the case of L314N_S267A_A330M_D376T (antibody), the Kd was determined as 286 nM.

The substance L314V_A330F_Y373W_H268A (antibody) showed a Fold-change relative to WT of 1.5 fold, a dissociation constant (Kd) of 190 nM, a dissociation rate constant (koff) of 0.035 s⁻¹ and an association rate constant (kon) of 184000 M⁻¹ s⁻¹.

Take L314W_A339T_A330M_D376T (antibody): the Fold-change relative to WT is 1.6 fold, the Kd is 179 nM, the koff stood at 0.045 s⁻¹ and the on-rate (kon) was 252000 M⁻¹ s⁻¹.

Substance S267D_A330Y_A339T (antibody) returned a Fold-change relative to WT of 2.7 fold, a Kd of 109 nM, an off-rate (koff) of 0.035 s⁻¹ and a kon of 320000 M⁻¹ s⁻¹.

With S267D_A330Y_D376V (antibody), the Fold-change relative to WT was determined as 2 fold, the Kd came to 145 nM, the koff amounted to 0.0406 s⁻¹ and the on-rate constant (kon) worked out at 279000 M⁻¹ s⁻¹.
